From the supplement of paper PMC10724198
± gives the standard deviation of the averaged measurements.

Assays:
Saccharomyces cerevisiae [1] = experiment: protein stability index of tFT-peptide fusion (C-terminal peptide) (PSI (0-1 scale)); higher = more stable (slower turnover); details: genetic background: wild type; temperature: 30 C
Saccharomyces cerevisiae [2] = experiment: as above
Method: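 MPS profiling in S. cerevisiae of the tFT-X12 degron library: putative degron peptides plus stable controls, 12 aa, fused to the C-terminus of a sfGFP-mCherry timer. Cells are FACS-sorted into 8 mCherry/sfGFP bins and deep-sequenced. PSI runs from 0 (unstable) to 1 (stable). Backgrounds are wild type, das1Δ and doa10Δ at 30 °C, and wild type, das1Δ, cdc34-1 and cdc53-1 at 37 °C; 2-3 technical replicates each.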

[3] = genetic background: cdc34-1, temperature: 37 C
[4] = genetic background: cdc53-1, temperature: 37 C
[5] = genetic background: das1 deletion, temperature: 30 C
[6] = genetic background: das1 deletion, temperature: 37 C
[7] = genetic background: doa10 deletion, temperature: 30 C
[8] = genetic background: wild type, temperature: 30 C
[9] = genetic background: wild type, temperature: 37 C
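Note: PSI is a weighted mean of sequencing reads over stability bins, variants kept only with over 10 reads, mCherry proximal and sfGFP distal, peptide attached via GGGS linker.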

Row | Sequence | protein stability index (Saccharomyces cerevisiae [1]) | protein stability index (Saccharomyces cerevisiae [2]; [3]) | protein stability index (Saccharomyces cerevisiae [2]; [4]) | protein stability index (Saccharomyces cerevisiae [2]; [5]) | protein stability index (Saccharomyces cerevisiae [2]; [6]) | protein stability index (Saccharomyces cerevisiae [2]; [7]) | protein stability index (Saccharomyces cerevisiae [2]; [8]) | protein stability index (Saccharomyces cerevisiae [2]; [9])
1 | ISSAGHNIRFLA | 0.23 ± 0.052 | 0.599 ± 0.052 | 0.698 ± 0.022 | 0.658 ± 0.025 | 0.715 ± 0.008 | 0.107 ± 0.025 | 0.129 ± 0.034 | 0.21 ± 0.018
2 | ISTRLALCACVC | 0.3273 ± 0.0032 | 0.184 ± 0.027 | 0.18 ± 0.0098 | 0.245 ± 0.019 | 0.3009 ± 0.0026 | 0.1999 ± 0.00074 | 0.208 ± 0.017 | 0.245 ± 0.0031
3 | IVRDTECGIFYR | 0.731 ± 0.013 | 0.689 ± 0.05 | 0.75 ± 0.021 | 0.642 ± 0.016 | 0.735 ± 0.023 | 0.6512 ± 0.0058 | 0.6662 ± 0.006 | 0.723 ± 0.021
4 | IVVWCGIRYSIR | 0.366 ± 0.032 | 0.328 ± 0.005 | 0.415 ± 0.055 | 0.263 ± 0.035 | 0.484 ± 0.0071 | 0.233 ± 0.013 | 0.262 ± 0.029 | 0.459 ± 0.0096
5 | KKKEILVYIIQE | 0.484 ± 0.014 | 0.598 ± 0.036 | 0.612 ± 0.024 | 0.438 ± 0.029 | 0.578 ± 0.018 | 0.4732 ± 0.0016 | 0.512 ± 0.077 | 0.592 ± 0.02
6 | KRLALVSCSICG | 0.4681 ± 0.0043 | 0.569 ± 0.03 | 0.6459 ± 0.003 | 0.446 ± 0.025 | 0.6239 ± 0.002 | 0.321 ± 0.028 | 0.351 ± 0.031 | 0.583 ± 0.0087
7 | KRRKERIKIQQI | 0.261 ± 0.062 | 0.628 ± 0.037 | 0.715 ± 0.041 | 0.634 ± 0.073 | 0.737 ± 0.089 | 0.122 ± 0.0062 | 0.168 ± 0.046 | 0.28 ± 0.0094
8 | KVGPVLLLCRRS | 0.445 ± 0.0089 | 0.6524 ± 0.00046 | 0.68 ± 0.023 | 0.637 ± 0.013 | 0.699 ± 0.0081 | 0.621 ± 0.019 | 0.628 ± 0.028 | 0.69 ± 0.0066
9 | LAGSSSIVVVFG | 0.406 ± 0.018 | 0.445 ± 0.00068 | 0.469 ± 0.04 | 0.299 ± 0.038 | 0.527 ± 0.0056 | 0.2496 ± 0.0021 | 0.297 ± 0.049 | 0.496 ± 0.026
10 | LAGVVWVVWCVG | 0.314 ± 0.06 | 0.17 ± 0.013 | 0.21 ± 0.0091 | 0.195 ± 0.031 | 0.385 ± 0.0088 | 0.1814 ± 0.00077 | 0.198 ± 0.03 | 0.367 ± 0.039
11 | LALTRAAITHFF | 0.42 ± 0.026 | 0.649 ± 0.026 | 0.749 ± 0.013 | 0.652 ± 0.017 | 0.743 ± 0.039 | 0.213 ± 0.0085 | 0.253 ± 0.026 | 0.496 ± 0.021
12 | LASLSRPFRAKF | 0.792 ± 0.0093 | 0.9674 ± 0.0085 | 0.949 ± 0.026 | 0.843 ± 0.011 | 0.914 ± 0.013 | 0.828 ± 0.029 | 0.8573 ± 0.0074 | 0.916 ± 0.012
13 | LCFLVLLSLLLL | 0.528 ± 0.061 | 0.558 ± 0.047 | 0.581 ± 0.018 | 0.464 ± 0.029 | 0.5486 ± 0.0041 | 0.466 ± 0.022 | 0.456 ± 0.024 | 0.5057 ± 0.0012
14 | LCHILAIIRRGA | 0.509 ± 0.05 | 0.691 ± 0.019 | 0.737 ± 0.032 | 0.596 ± 0.037 | 0.687 ± 0.013 | 0.429 ± 0.038 | 0.449 ± 0.05 | 0.624 ± 0.036
15 | LCLRCQCIGTLS | 0.489 ± 0.0097 | 0.54 ± 0.017 | 0.587 ± 0.014 | 0.45 ± 0.023 | 0.557 ± 0.012 | 0.413 ± 0.016 | 0.435 ± 0.013 | 0.54 ± 0.0091
16 | LCSLSIFVLFSC | 0.25 ± 0.005 | 0.192 ± 0.015 | 0.309 ± 0.027 | 0.209 ± 0.036 | 0.381 ± 0.0064 | 0.141 ± 0.0032 | 0.147 ± 0.017 | 0.272 ± 0.018
17 | LCSVVIFCLVWG | 0.324 ± 0.022 | 0.117 ± 0.0048 | 0.263 ± 0.041 | 0.198 ± 0.03 | 0.343 ± 0.044 | 0.177 ± 0.008 | 0.182 ± 0.019 | 0.306 ± 0.0083
18 | LCVWRRAIVWVG | 0.137 ± 0.039 | 0.363 ± 0.038 | 0.4573 ± 0.0015 | 0.352 ± 0.025 | 0.512 ± 0.007 | 0.0712 ± 0.011 | 0.0818 ± 0.021 | 0.0815 ± 0.0071
19 | LFDYEAGEVMGG | 0.717 ± 0.017 | 0.729 ± 0.042 | 0.747 ± 0.03 | 0.661 ± 0.023 | 0.783 ± 0.017 | 0.656 ± 0.025 | 0.689 ± 0.022 | 0.779 ± 0.023
20 | LFFFLVWSLSVF | 0.0314 ± 0.029 | 0.0262 ± 0.0035 | 0.0512 ± 0.0066 | 0.0353 ± 0.011 | 0.0635 ± 0.02 | 0.0187 ± 0.0092 | 0.0205 ± 0.0042 | 0.0395 ± 0.013

Row | Sequence | protein stability index (Saccharomyces cerevisiae [1]) | protein stability index (Saccharomyces cerevisiae [2]; [3]) | protein stability index (Saccharomyces cerevisiae [2]; [4]) | protein stability index (Saccharomyces cerevisiae [2]; [5]) | protein stability index (Saccharomyces cerevisiae [2]; [6]) | protein stability index (Saccharomyces cerevisiae [2]; [7]) | protein stability index (Saccharomyces cerevisiae [2]; [8]) | protein stability index (Saccharomyces cerevisiae [2]; [9])
21 | LFFFVCYLATVK | 0.276 ± 0.053 | 0.198 ± 0.0088 | 0.347 ± 0.11 | 0.23 ± 0.032 | 0.416 ± 0.017 | 0.166 ± 0.011 | 0.191 ± 0.02 | 0.326 ± 0.0072
22 | LFGFYFVRCLVW | 0.226 ± 0.0096 | 0.113 ± 0.0026 | 0.168 ± 0.022 | 0.178 ± 0.022 | 0.263 ± 0.012 | 0.16 ± 0.017 | 0.159 ± 0.0095 | 0.23 ± 0.0099
23 | LFHFPSWIFCLL | 0.331 ± 0.0049 | 0.562 ± 0.02 | 0.612 ± 0.029 | 0.55 ± 0.036 | 0.688 ± 0.015 | 0.24361 ± 0.00024 | 0.251 ± 0.014 | 0.308 ± 0.016
24 | LFIRSFLFFSHF | 0.27 ± 0.0052 | 0.353 ± 0.0079 | 0.3482 ± 0.00057 | 0.498 ± 0.019 | 0.581 ± 0.016 | 0.248 ± 0.026 | 0.184 ± 0.025 | 0.307 ± 0.082
25 | LFLTSFRFLRLF | 0.162 ± 0.0047 | 0.337 ± 0.016 | 0.4813 ± 0.0027 | 0.509 ± 0.0094 | 0.597 ± 0.03 | 0.0803 ± 0.006 | 0.0691 ± 0.015 | 0.134 ± 0.03
26 | LFPLLCLLLPSL | 0.538 ± 0.065 | 0.614 ± 0.091 | 0.664 ± 0.033 | 0.548 ± 0.025 | 0.638 ± 0.0096 | 0.521 ± 0.027 | 0.522 ± 0.02 | 0.628 ± 0.0063
27 | LFTVCMIIQMVH | 0.177 ± 0.017 | 0.0516 ± 0.003 | 0.185 ± 0.0029 | 0.145 ± 0.036 | 0.273 ± 0.02 | 0.0793 ± 0.0011 | 0.1 ± 0.055 | 0.173 ± 0.016
28 | LFVGLVSFRIGA | 0.477 ± 0.029 | 0.563 ± 0.039 | 0.573 ± 0.014 | 0.428 ± 0.029 | 0.601 ± 0.0068 | 0.399 ± 0.018 | 0.419 ± 0.021 | 0.575 ± 0.0069
29 | LGCRFCFVGVVG | 0.494 ± 0.033 | 0.589 ± 0.011 | 0.632 ± 0.052 | 0.429 ± 0.021 | 0.634 ± 0.026 | 0.395 ± 0.01 | 0.439 ± 0.029 | 0.574 ± 0.022
30 | LGPLGWLVLLLV | 0.292 ± 0.035 | 0.415 ± 0.012 | 0.425 ± 0.014 | 0.353 ± 0.022 | 0.483 ± 0.0058 | 0.23 ± 0.015 | 0.22 ± 0.021 | 0.354 ± 0.0068
31 | LGWFVDFVFVVW | 0.4693 ± 0.0045 | 0.289 ± 0.0096 | 0.426 ± 0.037 | 0.27 ± 0.03 | 0.458 ± 0.012 | 0.244 ± 0.0045 | 0.274 ± 0.025 | 0.454 ± 0.0019
32 | LHASCVYTILLV | 0.389 ± 0.0049 | 0.427 ± 0.035 | 0.4584 ± 0.0012 | 0.351 ± 0.03 | 0.499 ± 0.0092 | 0.323 ± 0.019 | 0.304 ± 0.019 | 0.451 ± 0.0082
33 | LIARYTFLFCLC | 0.444 ± 0.031 | 0.553 ± 0.042 | 0.611 ± 0.015 | 0.531 ± 0.015 | 0.628 ± 0.021 | 0.3501 ± 0.0008 | 0.354 ± 0.024 | 0.488 ± 0.025
34 | LLCGVLFFFWVV | 0.42 ± 0.068 | 0.38 ± 0.018 | 0.496 ± 0.011 | 0.383 ± 0.03 | 0.525 ± 0.017 | 0.311 ± 0.0096 | 0.32 ± 0.021 | 0.451 ± 0.0076
35 | LLFSVLLLGVGF | 0.407 ± 0.035 | 0.425 ± 0.033 | 0.4723 ± 0.001 | 0.334 ± 0.023 | 0.5038 ± 0.0037 | 0.329 ± 0.024 | 0.324 ± 0.036 | 0.475 ± 0.0074
36 | LLGSRFVLIRSL | 0.185 ± 0.017 | 0.488 ± 0.028 | 0.571 ± 0.044 | 0.462 ± 0.026 | 0.621 ± 0.012 | 0.114 ± 0.014 | 0.121 ± 0.01 | 0.161 ± 0.009
37 | LLLRSSRLRVLS | 0.176 ± 0.065 | 0.543 ± 0.064 | 0.619 ± 0.03 | 0.607 ± 0.013 | 0.6521 ± 0.005 | 0.0852 ± 0.0037 | 0.0918 ± 0.02 | 0.149 ± 0.021
38 | LLLRWWLYSCCP | 0.42 ± 0.034 | 0.411 ± 0.027 | 0.495 ± 0.012 | 0.324 ± 0.032 | 0.4667 ± 0.0026 | 0.319 ± 0.016 | 0.328 ± 0.017 | 0.478 ± 0.012
39 | LLPFSLLDLLLC | 0.488 ± 0.066 | 0.658 ± 0.028 | 0.707 ± 0.021 | 0.58 ± 0.028 | 0.681 ± 0.016 | 0.361 ± 0.029 | 0.404 ± 0.017 | 0.607 ± 0.0088
